Test results taken from paper PMC5522267, “Targeting PEPT1: a novel strategy to improve the antitumor efficacy of doxorubicin in human hepatocellular carcinoma therapy” (Oncotarget, 2017).
Marks after values point to notes of the source that are not given here.

Legend:
[1] = Drug distribution in tissues by Small Animal Imaging, HepG2 HCC mice; format: in vivo, nude mice; conditions: HepG2 HCC mice (low dose group), compared with control group
Description: (§5) What's more, the tumor, liver, jejunum and heart tissue of mice were dissected firstly for Small Animal Imaging (KODAK IS in-vivo FX, Kodak), and secondly were placed in the 10% Formaldehyde solution to prepare paraffin section, HE staining for histological examination.

[2] = test system: HepG2 HCC
Description: (§1) An animal model of HCC cells (Bel-7402, HepG2) transplanted into nude mice was established according to the method described in ref. 10.

[3] = test system: Bel-7402 HCC
Description: as §1

[4] = Cardiac indexes, HepG2 HCC mice; format: in vivo, nude mice; conditions: low dose, after treatment
[5] = test system: HepG2; test: cells; format: cell-based, human; conditions: HepG2, MTT
Procedure: (§2) Cells in the growth log phase were seeded in 96-well plate (200 ul/well) with density 8×10^3/well for 24 hours, then the drugs were added. The concentration of Doxorubicin-tripeptide conjugate was 0.005 mg/ml, 0.01 mg/ml, 0.02 mg/ml, 0.04 mg/ml, 0.06 mg/ml in turn, while Doxorubicin followed by 0.005 mg/ml, 0.01 mg/ml, 0.02 mg/ml, 0.04 mg/ml, 0.06 mg/ml with a same dosing volume 100 μl. Each concentration group included five equal wells and was provided with a control well of medium alone as a negative control. Add 20 μl of MTT Reagent ( 5 mg/ml, Sigma) to each well, including controls and continue to be incubated at 37°C for 4 hours. Remove the supernatant, drop plus DMSO (200 μl/well) and measure the OD value in each well, including the blanks, at 490 nm by a Multi-Mode Reader (BioTek, Synergy 2, USA). To calculate the inhibitory rate and the half maximal inhibitory concentration (IC50) according to the formula: Inhibitory rate =(1-( the dosing group OD/the control group OD )) × 100%, IC50 = lg^-1 (Xm-i (ΣP-0.5)) (Xm: the logarithm of maximum concentration, I: the logarithm of maximum dose/ adjacent dose, P: the sum of each group inhibitory rate, Pm: the maximum inhibitory rate, Pn: the minimum inhibitory rate ).

[6] = test system: Caco2; test: cells; format: cell-based, human; conditions: Caco2, MTT
Procedure: as §2

[7] = test system: Bel-7402; test: cells; format: cell-based, human; conditions: Bel-7402, MTT
Procedure: as §2

[8] = test system: Caco2; test: Drug concentration in tumor cells by HPLC, Caco2; format: cell-based, human; conditions: incubated 2 hours
[9] = Drug distribution in tissues by Small Animal Imaging, Bel-7402 HCC mice; format: in vivo, nude mice; conditions: Bel-7402 HCC mice (high dose group), compared with Doxorubicin group
Description: as §5

[10] = Blood routine, HepG2 HCC mice; format: in vivo, nude mice; conditions: low dose, after treatment
[11] = test system: HepG2; test: Drug concentration in tumor cells by HPLC, HepG2; format: cell-based, human; conditions: incubated 2 hours
Procedure: (§3) When the density of HCC cells reached to 3 × 10^6/ml, they were trypsinized and centrifuge (4°C, 800rpm, 5min), then discarded the supernatant, dropping medium 3 ml and evenly mixed. Cell suspension was divided into three groups (control group, Doxorubicin-tripeptide conjugate group and Doxorubicin group). The drug concentration was 0.01 mg/ml for cultured 2 hours avoiding light. Then the cells obtained by centrifugation were proceeded by the following steps: washed 3 times with 1 ml normal saline, added 0.5 ml ultra pure water (Millipore), broken by ultrasonic wave, drooped in acetonitrile (Tianjin Concord Technology Co. Ltd, China) 0.5 ml, mixed, ultrasonic oscillation for 10 mins, centrifuge (1200 rpm, 15 min), take the supernatant, filtration with filter membrane, take 20 μl for HPLC analysis (Agilent 1100 HPLC system, USA).
(§4) Chromatographic conditions were as follows: chromatographic column: DIONEX Acclaim 120 C18 (2.1 × 250 mm, 5 μm 120A), Mobile phase: Acetonitrile-0.2%NaH2PO4 aqueous solution (35: 65), Velocity: 0.35 ml/min, column temperature: 30°C, DAD, 254 nm, sample size: 20 μl. […] According to the chromatographic condition, the retention time (tR), peak position time, chromatographic behavior, resolution (R), the minimum detectable concentration and the intracellular drug concentration of these two drugs were detected in turn.

[12] = Cardiac indexes, Bel-7402 HCC mice; format: in vivo, nude mice; conditions: high dose, after treatment
[13] = test system: HCC cells; test: MTT on HCC cells (cell line not given); format: cell-based, human
Procedure: as §2

[14] = Blood routine, Bel-7402 HCC mice; format: in vivo, nude mice; conditions: high dose, after treatment
[15] = test system: Bel-7402; test: Drug concentration in tumor cells by HPLC, Bel-7402; format: cell-based, human; conditions: incubated 2 hours
Procedure: as §3, §4

[16] = biological target: T1, PEPT1 (Homo sapiens, UniProt P46059); parameters: method as in previous research of the authors (Figure 1); conditions: Bel-7402, HepG2 and Caco-2 cells; ref previous research of the authors (Figure 1); cited from earlier work
T1 construct: Doxorubicin-tripeptide conjugate were incubated with HCC cell monolayer at pH 6.0 for 120 min; endogenous in cells; host or cells: Bel-7402, HepG2 (human HCC cells); Caco-2
T1 sequence (P46059 1-708): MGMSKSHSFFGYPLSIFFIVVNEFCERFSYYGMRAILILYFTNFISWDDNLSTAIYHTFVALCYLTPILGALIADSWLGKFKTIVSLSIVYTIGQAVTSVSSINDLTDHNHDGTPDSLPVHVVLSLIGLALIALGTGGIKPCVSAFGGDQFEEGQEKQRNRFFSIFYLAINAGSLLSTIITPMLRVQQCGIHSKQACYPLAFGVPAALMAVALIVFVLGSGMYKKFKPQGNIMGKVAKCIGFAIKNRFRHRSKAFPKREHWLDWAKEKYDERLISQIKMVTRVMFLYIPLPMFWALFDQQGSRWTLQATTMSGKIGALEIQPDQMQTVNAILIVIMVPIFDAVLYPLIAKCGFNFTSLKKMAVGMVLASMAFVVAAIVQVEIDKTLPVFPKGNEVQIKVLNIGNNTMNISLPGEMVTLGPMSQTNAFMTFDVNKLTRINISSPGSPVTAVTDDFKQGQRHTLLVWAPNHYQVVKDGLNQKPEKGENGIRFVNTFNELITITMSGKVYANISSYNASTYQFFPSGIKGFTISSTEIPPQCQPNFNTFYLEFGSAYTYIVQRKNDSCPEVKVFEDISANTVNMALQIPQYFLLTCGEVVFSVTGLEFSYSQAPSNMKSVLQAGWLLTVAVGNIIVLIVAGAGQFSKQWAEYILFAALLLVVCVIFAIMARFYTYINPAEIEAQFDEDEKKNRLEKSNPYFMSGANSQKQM

**Q.** Which results are given for `COc1cccc2c1C(=O)c1c(O)c3c(c(O)c1C2=O)C[C@@](O)(C(=O)CO)C[C@@H]3O[C@H]1C[C@H](NC(=O)CNC(=O)CNC(=O)CN)[C@H](O)[C@H](C)O1` [Doxorubicin-tripeptide conjugate]?
**A.** drug distribution in tissues [1]: mainly distributed in subcutaneous tumor tissue and less in heart tissue; deaths during treatment ([2]; HepG2, low dose group, 5W): no death; Mice weight, Before treatment ([2]; HepG2 HCC mice, baseline): 20.88 ± 5.37 g; Mice weight, After treatment ([2]; HepG2 HCC mice, low dose: Doxorubicin 40 mg/m^2, conjugate 200 mg/m^2, tail vein, 5 weeks): 19.90 ± 3.71 g; deaths during treatment ([3]; Bel-7402, high dose group, 5W): 1 death during the treatment of 4W+; Mice weight, Before treatment ([3]; Bel-7402 HCC mice, baseline): 23.22 ± 1.57 g; Mice weight, After treatment ([3]; Bel-7402 HCC mice, high dose: Doxorubicin 60 mg/m^2, conjugate 300 mg/m^2, tail vein, 5 weeks): 20.13 ± 1.09^a g; change of mice weight during treatment (HCC mice, both dose groups): weight increase in group B at the early stage of treatment, but a weight decreased significantly at the late stage of treatment; survival quality (general condition) (HCC mice, both dose groups): lethargy, vomiting and loss of appetite administered within 3 days, then gradually restored; damage to heart and bone marrow (compared with the Doxorubicin group, cardiac indexes, histopathology, blood routine, bone marrow smears, P < 0.05): less damage to the heart and bone marrow; AST [4]: 637.75 ± 319.83 U/L; CK [4]: 1070.75 ± 193.32 U/L; CK-Mb [4]: 570.00 ± 99.07^b U/L; GSH-PX [4]: 682.33 ± 51.09 U; LDH [4]: 6116.75 ± 1136.22 U/L; MDA [4]: 3.16 ± 0.26 nmol/mg; SOD [4]: 164.15 ± 25.20 U/mg; IC50 [5]: 51.4 µg/mL; IC50 [6]: 52.9 µg/mL; IC50 [7]: 52.5 µg/mL; drug concentration in tumor cells [8]: 3090 ± 30 ng/mL; drug distribution in tissues [9]: mainly distributed in subcutaneous tumor tissue and liver metastatic tumor tissue and less in heart tissue; PLT [10]: 135.00 ± 69.55 ×10^9/l; RBC [10]: 8.03 ± 0.91 ×10^12/l; WBC [10]: 8.08 ± 3.40 ×10^9/l; drug concentration in tumor cells [11]: 2940 ± 20 ng/mL; AST [12]: 720.83 ± 303.52^b U/L; CK [12]: 1025.17 ± 182.34^b U/L; CK-Mb [12]: 424.33 ± 189.91^b U/L; GSH-PX [12]: 700.50 ± 79.58^b U; LDH [12]: 6517.00 ± 1956.59 U/L; MDA [12]: 2.78 ± 0.22^b nmol/mg; SOD [12]: 171.71 ± 15.51 U/mg; IC50 [13]: 50 µg/mL; PLT [14]: 159.83 ± 74.74^b ×10^9/l; RBC [14]: 7.50 ± 1.77 ×10^12/l; WBC [14]: 7.05 ± 2.70^b ×10^9/l; drug concentration in tumor cells [15]: 3080 ± 30 ng/mL

**Q.** For `Cc1c(CC(=O)NCCCC[C@H](NC(=O)[C@@H](C)N)C(=O)O)c(=O)oc2cc(N)ccc12` [Ala-Lys-AMCA], which “inhibition of uptake by PEPT1 substrates” value [16] is on record?
**A.** competitive inhibition by three known substrates of PEPT1

**Q.** And the “uptake dependence on time and concentration” value [16]?
**A.** time-dependent and concentration-dependent
